The target of this test is T1, human desmoglein 2 (Dsg2) on cells (human, UniProt Q14126 50-1118).
T1 construct: whole, on cells; also called huma Dsg2; hDsg2
T1 sequence (looked up): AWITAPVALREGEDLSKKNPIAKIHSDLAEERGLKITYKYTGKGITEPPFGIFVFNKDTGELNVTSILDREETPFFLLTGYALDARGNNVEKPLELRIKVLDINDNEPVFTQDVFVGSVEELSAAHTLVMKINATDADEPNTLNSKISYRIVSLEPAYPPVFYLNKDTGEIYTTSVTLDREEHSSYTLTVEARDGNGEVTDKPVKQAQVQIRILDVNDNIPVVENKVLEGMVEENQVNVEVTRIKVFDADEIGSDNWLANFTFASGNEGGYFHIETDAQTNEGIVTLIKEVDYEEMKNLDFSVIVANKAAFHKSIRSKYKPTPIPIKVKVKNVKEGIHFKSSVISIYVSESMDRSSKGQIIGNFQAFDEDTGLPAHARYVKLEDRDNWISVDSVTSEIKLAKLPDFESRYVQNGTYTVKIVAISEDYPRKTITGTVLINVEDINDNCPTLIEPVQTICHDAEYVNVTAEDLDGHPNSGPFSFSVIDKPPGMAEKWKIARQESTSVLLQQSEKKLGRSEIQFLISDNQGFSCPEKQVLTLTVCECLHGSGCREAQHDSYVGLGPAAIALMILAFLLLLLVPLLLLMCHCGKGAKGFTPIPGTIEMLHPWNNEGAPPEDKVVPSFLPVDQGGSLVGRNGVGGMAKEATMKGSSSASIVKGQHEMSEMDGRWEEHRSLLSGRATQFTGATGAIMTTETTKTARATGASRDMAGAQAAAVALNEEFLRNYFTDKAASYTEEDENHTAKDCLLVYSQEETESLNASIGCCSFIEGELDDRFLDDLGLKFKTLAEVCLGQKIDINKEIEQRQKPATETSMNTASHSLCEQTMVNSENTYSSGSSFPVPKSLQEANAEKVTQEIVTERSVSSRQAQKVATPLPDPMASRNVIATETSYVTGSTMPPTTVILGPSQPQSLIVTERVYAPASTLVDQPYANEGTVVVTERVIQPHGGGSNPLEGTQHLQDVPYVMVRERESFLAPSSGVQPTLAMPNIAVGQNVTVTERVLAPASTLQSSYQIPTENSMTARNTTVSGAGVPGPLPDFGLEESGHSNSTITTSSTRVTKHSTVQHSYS
Briefly: legend of FIG. 5: Dsg2 domain scheme; immunoblot and immunostaining of A431 SCC cells. An excerpt:
P, Pro-region; EC, Extracellular Domain; TM, Transmembrane; IA, Intracellular Anchoring, ICS, Intracellular Cadherin Segment; LD, Linker Domain; RUD, Repeat Unit Domain; TD, Terminal Domain. 10D2 recognizes EC1 while 6D8 recognizes EC4. For FIG. 5B and FIG. 5C, A431 SCC was immunoblotted (FIG. 5B) or immunostained (FIG. 5C) with mAbs 6D8 and 10D2.

B1: mAb 10D2 (antibody, V domains shown)
VH: EVQLQQSGPELVNPGASVKMSCKASGYSFTSYILHWVKQKPGQGLEWIGYINPYNDATKYNEKFKGKATLTSDKSSSTAYMELSSVTSEDSAVYYCCSMITTAYWAYWGQGTLVTVSA
VL: NIMMTQSPSSLTVSAGEKVTMSCKSSQSILYGSTQKNYLAWYQQKPGQSPKLLIYWASTRESGVPDRFTGSGSGTDFTLTISSVQAEDLAVYYCHQYLSSYTFGGGTKLEIK
notes: Monoclonal antibody from a hybridoma; also called 10D2 Antibody; 10D2 mAb
On to B1, for which the binding result is reported as “binds”.

B2: mAb 6D8 (antibody, V domains shown)
VH: QIQLVQSGPELKKPGETVKISCKASGYTFTNYGMNWVKQAPGRGLKWMGWINTYTGNPTYADDFKGRFDFSLETSASTAYLQINNLKNEDMAIYFCARDRGNSFDYWGQGTTLTVSS
VL: DIQMTQSPASLSVSVGETVTITCRASENIYSNLAWYQQKQGKSPQLLVYIAINLADGVPSRFSGSGSGTQYSLKINSLQSEDFGNYYCQHFWGTPRTFGGGTKLEIK
notes: Monoclonal antibody from a hybridoma; also called 6D8 Antibody; 6D8 mAb
Consider B2, for which the binding result is recorded as “binds”.

For the origin of these results see patent US20240108651A1 (THOMAS JEFFERSON UNIVERSITY, published 2024).
